Our source for the t½ half life values is US20090280138A1 (OXFORD BIOMEDICA UK, published 2009).

The target of assay [1] is T1, MHC class I molecule HLA-A*0201 (iTopia plate-bound monomer) (biotin (bound to streptavidin-coated plate)).
T1 construct: also called A2
Put plainly: iTopia off-rate assay, 37 C; fit R^2 0.81. As for the experimental part: (§1) The 9 mers were tested for Peptide Binding, Off Rate and Affinity using iTopia Epitope Discovery System in accordance with the manufacturer's instructions. Briefly, 96 well microtitre plates coated with MHC molecules representing different MHC alleles are used to identify candidate peptides. […] Determinations are performed in duplicate using an ELISA plate reader and included allele specific positive controls.
(§2) A one-phase exponential decay curve, with a plateau given equal to 0, was generated using GraphPad Prism® software, which calculated the t1/2 and goodness-of-fit, as measured by r², for each peptide.

The target in assay [2] is T2, MHC class I molecule HLA-B*0702 (iTopia plate-bound monomer) (biotin (bound to streptavidin-coated plate)).
T2 construct: Commercial iTopia system; also called B7
Put plainly: iTopia off-rate assay, 37 C; fit R^2 0.81. As for the experimental part: as §1, §2

For assay [3], the target named is T2, MHC class I molecule HLA-B*0702 (iTopia …). Put plainly: iTopia off-rate assay, 37 C; fit R^2 0. As for the experimental part:
as §1, §2

In assay [4] the target is T3, MHC class I molecule HLA-A*0301 (iTopia plate-bound monomer) (biotin (bound to streptavidin-coated plate)).
T3 construct: also called A3
The assay is described as follows: iTopia off-rate assay, 37 C; fit R^2 0.96. As for the experimental part:
as §1, §2

The target in assay [5] is T2, MHC class I molecule HLA-B*0702 (iTopia …). The assay is described as follows: iTopia off-rate assay, 37 C; fit R^2 0.87. On the procedure: as §1, §2
For assay [6], the target named is T1, MHC class I molecule HLA-A*0201 (iTopia …). Put plainly: iTopia off-rate assay, 37 C; fit R^2 0.9. A digest of the protocol:
(§3)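 Using MHC-coated 96-well plates per the kit instructions, each nonamer is assessed twice and detected with an ELISA plate reader. Allele-specific positive controls run in parallel. A mono-exponential decay model constrained to a zero plateau yields the half-life, with r² reporting fit quality.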

Assay [7] deals with T2, MHC class I molecule HLA-B*0702 (iTopia …). Put plainly: iTopia off-rate assay, 37 C; fit R^2 0.94. A digest of the protocol:
as §3

For assay [8], the target named is T1, MHC class I molecule HLA-A*0201 (iTopia …). Put plainly: iTopia off-rate assay, 37 C; fit R^2 0.42. On the procedure: as §1, §2
Assay [9] addresses T3, MHC class I molecule HLA-A*0301 (iTopia …). Put plainly: iTopia off-rate assay, 37 C; fit R^2 0.64. As for the experimental part: as §1, §2
Assay [10] concerns the target T2, MHC class I molecule HLA-B*0702 (iTopia …). Put plainly: iTopia off-rate assay, 37 C; fit R^2 0.82. As for the experimental part: as §1, §2
Assay [11] has as its target T1, MHC class I molecule HLA-A*0201 (iTopia …). The assay is described as follows: iTopia off-rate assay, 37 C; fit R^2 0.26. On the procedure:
as §1, §2

Assay [12] has as its target T2, MHC class I molecule HLA-B*0702 (iTopia …). The assay is described as follows: iTopia off-rate assay, 37 C; fit R^2 0.76. On the procedure: as §1, §2
In assay [13] the target is T4, MHC class I molecule HLA-A*0101 (iTopia plate-bound monomer) (biotin (bound to streptavidin-coated plate)).
T4 construct: also called A1
The assay is described as follows: iTopia off-rate assay, 37 C; fit R^2 0.18. As for the experimental part: as §1, §2

Assay [14] addresses T1, MHC class I molecule HLA-A*0201 (iTopia …). Put plainly: iTopia off-rate assay, 37 C; fit R^2 0.72. As for the experimental part:
as §1, §2

Assay [15] has the same target. The assay is described as follows: iTopia off-rate assay, 37 C; fit R^2 0.77. As for the experimental part: as §1, §2
Assay [16] has as its target T3, MHC class I molecule HLA-A*0301 (iTopia …). Put plainly: iTopia off-rate assay, 37 C; fit R^2 0.97. As for the experimental part: as §1, §2
For assay [17], the target named is T1, MHC class I molecule HLA-A*0201 (iTopia …). The assay is described as follows: iTopia off-rate assay, 37 C; fit R^2 0.02. On the procedure: as §1, §2
Assay [18] deals with T3, MHC class I molecule HLA-A*0301 (iTopia …). Put plainly: iTopia off-rate assay, 37 C; fit R^2 0.84. On the procedure: as §1, §2
Assay [19] addresses T2, MHC class I molecule HLA-B*0702 (iTopia …). Put plainly: iTopia off-rate assay, 37 C; fit R^2 0.1. On the procedure: as §1, §2
Assay [20] deals with T1, MHC class I molecule HLA-A*0201 (iTopia …). The assay is described as follows: iTopia off-rate assay, 37 C; fit R^2 0.79. On the procedure: as §1, §2
For assay [21] the target is unchanged. The assay is described as follows: iTopia off-rate assay, 37 C; fit R^2 0.3. As for the experimental part:
as §1, §2

Assay [22] shares this target. The assay is described as follows: iTopia off-rate assay, 37 C; fit R^2 0.11. On the procedure: as §1, §2
For assay [23], the target named is T4, MHC class I molecule HLA-A*0101 (iTopia …). The assay is described as follows: iTopia off-rate assay, 37 C; fit R^2 0.15. On the procedure:
as §1, §2

Assay [24] concerns the target T2, MHC class I molecule HLA-B*0702 (iTopia …). The assay is described as follows: iTopia off-rate assay, 37 C; fit R^2 0.86. On the procedure:
as §1, §2

Assay [25] deals with T1, MHC class I molecule HLA-A*0201 (iTopia …). Put plainly: iTopia off-rate assay, 37 C; fit R^2 0.97. As for the experimental part: as §1, §2
The target of assay [26] is T2, MHC class I molecule HLA-B*0702 (iTopia …). The assay is described as follows: iTopia off-rate assay, 37 C; fit R^2 0.38. On the procedure: as §1, §2
Assay [27] addresses T1, MHC class I molecule HLA-A*0201 (iTopia …). The assay is described as follows: iTopia off-rate assay, 37 C; fit R^2 0.75. On the procedure: as §1, §2
Assay [28] has the same target. Put plainly: iTopia off-rate assay, 37 C; fit R^2 0.58. On the procedure: as §1, §2
The target in assay [29] is T2, MHC class I molecule HLA-B*0702 (iTopia …). Put plainly: iTopia off-rate assay, 37 C; fit R^2 0.95. A digest of the protocol: as §3
Assay [30] addresses T3, MHC class I molecule HLA-A*0301 (iTopia …). Put plainly: iTopia off-rate assay, 37 C; fit R^2 0.61. As for the experimental part: as §1, §2
The target of assay [31] is T2, MHC class I molecule HLA-B*0702 (iTopia …). The assay is described as follows: iTopia off-rate assay, 37 C; fit R^2 0.68. On the procedure: as §1, §2
The target of assay [32] is T1, MHC class I molecule HLA-A*0201 (iTopia …). Put plainly: iTopia off-rate assay, 37 C; fit R^2 0.95. A digest of the protocol:
as §3

The target is the same in assay [33]. Put plainly: iTopia off-rate assay, 37 C; fit R^2 0.2. On the procedure:
as §1, §2

The target in assay [34] is T4, MHC class I molecule HLA-A*0101 (iTopia …). The assay is described as follows: iTopia off-rate assay, 37 C; fit R^2 0.12. As for the experimental part: as §1, §2
For assay [35], the target named is T2, MHC class I molecule HLA-B*0702 (iTopia …). The assay is described as follows: iTopia off-rate assay, 37 C; fit R^2 0.73. On the procedure:
as §1, §2

Assay [36] concerns the target T3, MHC class I molecule HLA-A*0301 (iTopia …). Put plainly: iTopia off-rate assay, 37 C; fit R^2 0.99. As for the experimental part: as §1, §2
Assay [37] deals with T4, MHC class I molecule HLA-A*0101 (iTopia …). The assay is described as follows: iTopia off-rate assay, 37 C; fit R^2 0.76. As for the experimental part: as §1, §2
The target of assay [38] is T1, MHC class I molecule HLA-A*0201 (iTopia …). Put plainly: iTopia off-rate assay, 37 C; fit R^2 0.87. As for the experimental part:
as §1, §2

The target is the same in assay [39]. Put plainly: iTopia off-rate assay, 37 C; fit R^2 0.76. As for the experimental part:
as §1, §2

B1: 5T4 9-mer peptide 117 LPSLRHLDL (peptide)
peptide: LPSLRHLDL
notes: also called Peptide No 117
In the case of B1, the t½ half life in [1] was determined as 42 min; in assay [2], 3 h.

B2: 5T4 9-mer peptide 126 YVSFRNLTH (peptide)
peptide: YVSFRNLTH
notes: also called Peptide No 126
Turning to B2, the t½ half life in assay [3] was determined as 2.6 h; in assay [4], 0.9 h.

B3: 5T4 9-mer peptide 113 LPRDVLAQL (peptide)
peptide: LPRDVLAQL
As for B3, the t½ half life in assay [5] was determined as 3.3 h.

B4: 5T4 9-mer peptide 182 LALIGAIFL (peptide)
peptide: LALIGAIFL
notes: also called Peptide No 182
With B4, the t½ half life in assay [6] worked out at 3.2 h; in assay [7], 30 min.

B5: 5T4 9-mer peptide 142 GLPHIRVFL (peptide)
peptide: GLPHIRVFL
notes: also called Peptide No 142
As for B5, the t½ half life in [8] was determined as 12.9 h; in assay [9] it was 6 h; in assay [10], 54 min.

B6: 5T4 9-mer peptide 179 VFLGIVLAL (peptide)
peptide: VFLGIVLAL
notes: also called Peptide No 179
As to B6, in assay [11], the t½ half life is 15 h.

B7: 5T4 9-mer peptide 163 YPEKMRNRV (peptide)
peptide: YPEKMRNRV
notes: also called Peptide No 163
In assay [12], B7 registered a t½ half life of 1.9 h.

B8: 5T4 9-mer peptide 161 LTCAYPEKM (peptide)
peptide: LTCAYPEKM
notes: also called Peptide No 161
In the case of B8, the t½ half life in [13] came out at 3.7 h; in [14], 3.1 h.

B9: 5T4 9-mer peptide 115 VLAQLPSLR (peptide)
peptide: VLAQLPSLR
Consider B9, for which the t½ half life came to 36 min in assay [15] and 12 min in assay [16].

B10: 5T4 9-mer peptide 183 LIGAIFLLV (peptide)
peptide: LIGAIFLLV
notes: also called Peptide No 183
Take B10: the values for the t½ half life in [17] and in assay [18] were 19.4 h and 30 min, respectively.

B11: 5T4 9-mer peptide 101 AALLAGRAL (peptide)
peptide: AALLAGRAL
Turning to B11, the t½ half life amounted to 1.6 h in assay [19] and 1.9 h in assay [20].

B12: 5T4 9-mer peptide 164 EKMRNRVLL (peptide)
peptide: EKMRNRVLL
In [21], B12 had a t½ half life of 7 h.

B13: 5T4 9-mer peptide 157 EVVQGKDRL (peptide)
peptide: EVVQGKDRL
B13 showed a t½ half life in assay [22] of 11 h.

B14: 5T4 9-mer peptide 109 LASNHFLYL (peptide)
peptide: LASNHFLYL
Take B14: the t½ half life in [23] was 3 h; in assay [24] it was 12 min; in [4], 3.6 h; in [25] it was 1.3 h.

B15: 5T4 9-mer peptide 121 LSNNSLVSL (peptide)
peptide: LSNNSLVSL
B15: the t½ half life in assay [26] was found to be 4.1 h; in assay [27] it was 48 min.

B16: 5T4 9-mer peptide 137 LHNGTLAEL (peptide)
peptide: LHNGTLAEL
notes: also called Peptide No 137
As to B16, the t½ half life in [28] turned out to be 4.2 h; in assay [29], 18 min.

B17: 5T4 9-mer peptide 104 RALQGLRRL (peptide)
peptide: RALQGLRRL
In the case of B17, the t½ half life worked out at 24 min in assay [30], 6 min in assay [31] and 36 min in assay [32].

B18: 5T4 9-mer peptide 125 LTYVSFRNL (peptide)
peptide: LTYVSFRNL
Consider B18, for which the t½ half life in assay [33] amounted to 8.1 h; in assay [34], 3.9 h; in assay [35], 6 h; in assay [36], 42 min.

B19: 5T4 9-mer peptide 177 QTSYVFLGI (peptide)
peptide: QTSYVFLGI
notes: also called Peptide No 177
On to B19, for which the t½ half life in assay [37] was 12 min; in assay [38], 36 min.

B20: 5T4 9-mer peptide 120 LDLSNNSLV (peptide)
peptide: LDLSNNSLV
notes: also called Peptide No 120
B20: the t½ half life in assay [39] is 3.4 h.
